The labels stand for the following.
B1: Hammerhead Ribozyme (parent)
chain: ACCGGAUGUGCUUUCCGGUCUGAUGAGUCCGUGAGGACGAAACAG

Variants of B1 are the subject of this data set. Nature of the data set: self-cleavage, relative activity (ratio to wild type); higher = more cleavage; co-transcriptional.
For ACCCGAUGUGCUUUCCGGUUUGAUGAGUCCGUGAGGACGAAACAG [G4C C20U], the self-cleavage stood at 0.441.
Regarding GACGGAUGUGCUUUCCGGUCUGAUGAGUCCGUGAGGACGAAACAG [A1G C2A], the self-cleavage is 0.881.
On to GCGGGAUGUGCUUUCCGGUCUGAUGAGUCCGUGAGGACGAAACAG [A1G C3G], for which the self-cleavage was 0.586.
Turning to ACCGGAUGUGCAUUCCGGUCUGAUGAGUACGUGAGGACGAAACAG [U12A C29A], the self-cleavage worked out at 0.634.
For ACCGGAUGUGUUUUCCGGUCUGAUGAGUCCGUGAGGACGAAACAG [C11U], the self-cleavage is 1.02.
The same measure for ACUGGAUGUGCUUUCAGGUCUGAUGAGUCCGUGAGGACGAAACAG [C3U C16A]: 0.476; for ACCGGAUGUGCCUUCCGGUCUGAUGACUCCGUGAGGACGAAACAG [U12C G27C]: 0.669; for ACCGGAUGUGCUUUCCGGUCUGAUUAGUCCGUUAGGACGAAACAG [G25U G33U]: 0.325.
With ACCGGAUGUGCUUUCGGGUCUGAUGAGCCCGUGAGGACGAAACAG [C16G U28C], the self-cleavage was found to be 0.269.
On to ACCGGAUGUGCUUUUCGGUCUGAUGUGUCCGUGAGGACGAAACAG [C15U A26U], for which the self-cleavage is 0.752.
The same measure for ACCGGAUGUGCUUACCGGGCUGAUGAGUCCGUGAGGACGAAACAG [U14A U19G]: 0.356; for ACCGGAUGUGCUUUCCGGUCUGAUGAGUCCGUGUGGACGAAACUG [A34U A44U]: 0.437; for ACCGGAUGUGCUUUCAGGUCUGAUGAGUCCGUGAGGACGAAAUAG [C16A C43U]: 0.438.
For the variant ACCGGAUGUGCUUUCCGGUCUGAUGAGUCCGUGAGGACGACCCAG [A41C A42C], the self-cleavage was 0.375.
The same measure for ACCGGAAGUGCUUUCCGGUCUGAUGAGUCCGUGAGGACGAAAGAG [U7A C43G]: 0.237; for ACCGGAUGUGCUUUCCGGUCUGAUGAGUCCGAGAGGACGAAACGG [U32A A44G]: 1.41.
For the variant ACCGGAUGUGCUUUUCGGUCUGAUGAGUCCGUGAGGACGAAACCG [C15U A44C], the self-cleavage stood at 0.596.
Regarding ACCGGAUGUGGUUUCCGGUCUGAUGAGUCCGUGAGGGCGAAACAG [C11G A37G], the self-cleavage worked out at 1.02.
With ACCGGAUGUGCUUUCCGGUCUGAUGAGUCAGUUAGGACGAAACAG [C30A G33U], the self-cleavage worked out at 0.995.
For AGCGGAUGUGCUUUCCGGUCUGAUUAGUCCGUGAGGACGAAACAG [C2G G25U], the self-cleavage worked out at 0.272.
On to ACCGGGUGUCCUUUCCGGUCUGAUGAGUCCGUGAGGACGAAACAG [A6G G10C], for which the self-cleavage came to 0.889.
Take ACGGGAUGUGCUUUCCGGUCUGAUUAGUCCGUGAGGACGAAACAG [C3G G25U]: the self-cleavage is 0.329.
Take ACCGGGUGUGCUUUCCGUUCUGAUGAGUCCGUGAGGACGAAACAG [A6G G18U]: the self-cleavage turned out to be 0.468.
Take ACCGGAUGUGCUUUCCGGUCUGAUGCGUCCGUGAGGACGAAACUG [A26C A44U]: the self-cleavage turned out to be 0.344.
On to ACAGGAUGUGCUUUCCGGUCUAAUGAGUCCGUGAGGACGAAACAG [C3A G22A], for which the self-cleavage is 0.308.
On to ACUGGAUGUGCUUUCCGGUCUGAUGAGUCCGUGCGGACGAAACAG [C3U A34C], for which the self-cleavage is 0.851.
Take ACCGGAUGUGCUUUCCGGUGUGAUGAGUCCGUGAGGCCGAAACAG [C20G A37C]: the self-cleavage stood at 0.298.
The same measure for ACCGGAUGUGAUUUCCGGUCUGACGAGUCCGUGAGGACGAAACAG [C11A U24C]: 1.13; for ACCGGGUGUGCUUUCCGGUCUGAAGAGUCCGUGAGGACGAAACAG [A6G U24A]: 0.597; for ACCGGAUGUGUUUUCCGGUCUGAUGAGUCCGUGAGGACGCAACAG [C11U A40C]: 0.438.
The same measure for ACCGGAUGUGCUUUCCGGUCUGAUGAGUCCGUGAGGACGAUAAAG [A41U C43A]: 0.321; for ACCGGAUGUGCUUUCCGGUCUAAUGAUUCCGUGAGGACGAAACAG [G22A G27U]: 0.28.
For ACCGGAUGUGCUUUCCCGUCUGAUGAGUCCGUGAGGACGGAACAG [G17C A40G], the self-cleavage is 0.373.
For the variant ACCGGACGUGCUUUCCGGUCUGAUGAGUCCGUAAGGACGAAACAG [U7C G33A], the self-cleavage came out at 1.15.
The same measure for ACCGGAUGUGCUAUCCGGUCUGAUGAGUGCGUGAGGACGAAACAG [U13A C29G]: 0.922; for ACCGGAUGUGCUAUCCGGUUUGAUGAGUCCGUGAGGACGAAACAG [U13A C20U]: 0.681.
As to ACCGGAUGUGCUUUCCGGGCUGAUGAGUUCGUGAGGACGAAACAG [U19G C29U], the self-cleavage amounted to 0.316.
As to UCCGGAUGUGCUUUCCGGUCUGUUGAGUCCGUGAGGACGAAACAG [A1U A23U], the self-cleavage was determined as 0.306.
As for ACCGGAUGUGCUUUCCGGUCUGUUGAGUCCGGGAGGACGAAACAG [A23U U32G], the self-cleavage was 0.41.
With ACCGGAUGUGCUUUCCGGUCUGAUGAGUCCGUGAGGACGUAACAC [A40U G45C], the self-cleavage was 0.458.
The same measure for ACAGGAUGUGCUUUCCGGUCUGAUGACUCCGUGAGGACGAAACAG [C3A G27C]: 0.422; for ACCGGAUGUGCUUUCCGGCCUGAUGAGUCCGUGAGGACGAGACAG [U19C A41G]: 0.228; for ACCGGAUGUGCUUUCCGGUCUGAUGAGACAGUGAGGACGAAACAG [U28A C30A]: 0.376.
In the case of ACCGGAUGUGCUUUCCGGUCUGAUGAGUCCGUGACGACGAAACAA [G35C G45A], the self-cleavage is 0.385.
For ACCGGAUGUGCUUUCCGGUCUGAUGAGUCCGUGAGGACGAAUCAG [A42U], the self-cleavage came to 0.338.
For ACCGGAUGUUCUUUCCGGUCUGAUGAGUCCGUGAGGACGAAACAA [G10U G45A], the self-cleavage amounted to 0.694.
The same measure for ACCGGAUGUGCUUUCCGGUCUAAUGAGUCCGUGAGGACCAAACAG [G22A G39C]: 0.385; for ACCGGAUGUGCUUUCCGGUCUGAUGAGCCCGUAAGGACGAAACAG [U28C G33A]: 1.16; for ACCGGAUGUGCUUUCCGGUCUGAUGAGUCCGUGAGGAUGACACAG [C38U A41C]: 0.32.
For the variant ACAGGAUGUGCUUUCCGAUCUGAUGAGUCCGUGAGGACGAAACAG [C3A G18A], the self-cleavage worked out at 0.344.
The same measure for ACCGGAUAUGCUUUCCGGUCUGAUGAGUCCGUGAGGACGAAAAAG [G8A C43A]: 0.335; for ACCGCAUGUGCUUUCCGGUCUGAUGAGUCCGUGAGGACGAAACAU [G5C G45U]: 0.382; for ACCGGAUGUGAUUUCCGGUCUGAUGAGUCCGUGAGGACGAAGCAG [C11A A42G]: 0.241.
Regarding ACCAGAUGUGCUUUCCGGUCUGAUGAGUCCGUGAGGACGAAACAA [G4A G45A], the self-cleavage was determined as 0.348.
In the case of ACCGUAUGUGCUUUCCGGUCUGAUGAGACCGUGAGGACGAAACAG [G5U U28A], the self-cleavage amounted to 0.361.
Take ACGGUAUGUGCUUUCCGGUCUGAUGAGUCCGUGAGGACGAAACAG [C3G G5U]: the self-cleavage was 0.305.
As for ACCGGAUGUGCUUUUCGGGCUGAUGAGUCCGUGAGGACGAAACAG [C15U U19G], the self-cleavage was 0.327.

Source of the values: the RNAGym collection of RNA variant scans (doi:10.7554/elife.80360).
